In data set [1] the target is FurBL (BL05249) (Bacillus licheniformis ATCC14580). In words: SEC; Superdex 200 HiLoad 16/60 gel filtration, Chelex-100-treated buffer A (20 mM Tris-HCl, pH 8.0, 0.1 M NaCl, 5% glycerol); oligomeric state judged by elution profile in the last purification step. Background: SEC sorts molecules by how far they enter the pores of the column.
The target in data set [2] is PerRBL (BL00075) (Bacillus licheniformis ATCC14580). The description is as above.
For data set [3], the target named is ZurBL (BL03703) (Bacillus licheniformis ATCC14580). The data set is described as above.
The subject of data set [4] is PerR2 (BL00690) (Bacillus licheniformis ATCC 14580). In words: EMSA. To be noted: EMSA: 20 mM Tris-HCl pH 8.0, 50 mM KCl, 5% glycerol, 50 ug/ml BSA, 100 uM MnCl2; 6% PAGE in 45 mM Tris-borate with 100 uM MnCl2; temperature not stated.
Data set [5] deals with the molecule itself. As to the kind of experiment: SEC; Superdex 200 HiLoad 16/60 gel filtration, Chelex-100-treated buffer A (20 mM Tris-HCl, pH 8.0, 0.1 M NaCl, 5% glycerol); oligomeric state judged by elution profile in the last purification step.

What is called stoichiometry N is the number of molecules, sites or subunits per partner or assembly. FurBL (BL05249) (natural protein) came in with a stoichiometry N in data set [1] of 2.

In the case of PerRBL (BL00075) (natural protein), in data set [2], the stoichiometry N was found to be 2.

Turning to ZurBL (BL03703) (natural protein), the stoichiometry N in data set [3] is 2.

One may read the Kd as a measure of binding affinity in units of concentration. “mrgA promoter fragment with PerR box (273 bp)” came in with a Kd in data set [4] of 70 nM.

B1: PerR2 (BL00690) (natural protein, Bacillus licheniformis ATCC14580, UniProt Q62UQ7 1-154, looked up)
chain: MENETNVKQEAMAQLKRKGIRMTPQRLAIYHYFLANRNHPTIAEIQQSLREIYPAVSTATIYNTIRYFKQEGLIKEMGFTDPLRFDLALEEHDHVICEVCGKIVDFHCPQLEKVKDIAARLTGFKVTHHRLELYGICNDCQAKRKYAAKEKGVR
notes: PerR-like protein BL00690 of Bacillus licheniformis ATCC14580; ORF cloned into the NcoI and BamHI sites of pET-16b (pJL202); Contains structural Zn2+ (~0.8 per monomer); source: E. coli BL21 (DE3) pLysS, purified (heparin-Sepharose, SP-Sepharose, Superdex 200)
Take B1: the “stoichiometry N” value in data set [5] worked out at 2.

The values above are taken from publication PMC4866751, “Bacillus licheniformis Contains Two More PerR-Like Proteins in Addition to PerR, Fur, and Zur Orthologues” (PLoS ONE, 2016).
